Consider 14 molecules from US20140287471A1, “VARIANT CBH I POLYPEPTIDES WITH REDUCED PRODUCT INHIBITION” (BP CORPORATION NORTN AMERICA INC., priority 2011, published 2014).

A short description of assay [1]: 4-MUL assay, specific activity (Example 2). Type of assay: biochemical. The following applies: primary screening; 10 μL enzyme; n=1. Here is the method:
(§1) CBH I activity on was measured using the 4-MUL assay using gluconolactone to inhibit any BG activity. The fluorogenic 4-MUL substrate (SIGMA) was prepared at 100 mM concentration in DMSO. Assays were run in black 96-well-flat-bottomed plates (Costar) and 4-MU fluorescence was read on a BioTek H4 plate reader (ex/em 365/450 nm). Assay plates were filled with buffer (final concentrations of 100 mM MES, pH 6, 25 mM gluconolactone, with or without cellobiose; cellobiose concentrations are listed with appropriate data sets), to which enzyme mixture was added (10-30 μl, 5 μg/mL final) and then assays were initiated by addition of 4-MUL (0.5 mM final concentration in 100 μl total volume). Enzyme mixtures were either CBH I variants from harvested supernatants or standards. Standards included: a negative control, consisting of harvested supernatant from the CBH I knock-out strain; a positive control, consisting of wild-type CBH I from harvested supernatants; and, a commercial CBH I standard (E-CBHI from Megazymes). Activity standards were run by serial dilution of commercial CBH I from 40 to 0.02 μg/mL and 4-MU (SIGMA, prepared at 20 mM in DMSO) (in dilution increments of 2-fold; all dilutions were made using harvested supernatant from the knock-out control). Kinetic rates were monitored over the first 15 mins following 4-MUL addition; initial rates were calculated based on data in the linear range. After 1 hr, a final endpoint read was taken, both before and after reaction quenching (100 μL of 200 mM Sodium Carbonate, pH 10.0). Activity was calculated for kinetic and endpoint reads; background resulting from the CBH I knock-out supernatant remained negligible. 4MU standard curves and HPLC quantification values were used to calculate specific activity.
The specific activity (SA) of the variant library was evaluated in a secondary 4-MUL assay. […] On average, a mutation at position 268 increases the specific activity by 2.5 fold over that of wild type. A mutation at 268 in combination with 411 is around 1.5-1.6 fold higher than wild-type, on average.

Assay [2] in a line: 4-MUL cellobiose tolerance/inhibition assay, dose-response IC50 (Example 2). The note with it: for Tolerance at 1 mM CB (MUL Data): 1 mM cellobiose. Type of assay: biochemical. Here is the method: as §1
Tolerance/inhibition values represent activity ratios and/or percent activity remaining/percent activity decreased in the presence versus the absence of cellobiose. Tolerant variants show less inhibition in the presence of cellobiose as compared to wild type, where an activity ratio of 1 (with vs. without a given concentration of cellobiose) is equivalent to 0% inhibition by cellobiose, or 100% tolerance. The effect of cellobiose on CBH I variant performance was monitored by dose-response in the 4MUL assay. Dose-response curves were generated by assaying variant activity in the presence of 6-8 different cellobiose concentrations ranging up to 100 mM cellobiose. CBH I samples were diluted to 5 μg/mL final concentration or were used directly in the case of protein quantification levels below 5 μg/mL. Half maximal inhibitory concentration (IC50) values were determined by plotting 4MUL activity versus cellobiose concentration and fitting with a four parameter dose-response fitting algorithm, with zero activity (or 100% inhibition) constrained to background activity (as established by CBH I knockout values) and with automatic outlier elimination (on GraphPad Prism 5).
Harvested supernatants from active variant isolates were evaluated for cellobiose tolerance at 1 mM cellobiose in the 4-MUL activity assay. Table 8 lists the tolerance of variants at 1 mM. […] Additional cellobiose concentrations at 0.25, 5, 10, 50, and 100 mM were tested leading to full dose-response curves for which half maximal inhibitory concentration (IC50) values were generated (Table 8). The IC50 values support that the variant library has decreased product inhibition, or increased tolerance to cellobiose, when compared to the wild-type enzyme (WT IC50=0.03 mM; see first entry, Table 8).
In one example, the cellobiose tolerance of the library was explored in more detail by generating dose-response curves and determining half maximal inhibitory concentration (IC50) values, the point at which the enzyme is 50% inhibited.

The mark [3] stands for this setting: primary screening, 10 μL enzyme, cellobiose range 0.0001-100 mM, n=1, read-out: IC50 (MUL Data).
Setting [4] is: Secondary screening, 30 μl harvested supernatant (CBH I levels lower than 5 μg/mL), cellobiose range 0.00085-100 mM, read-out: IC50.
Where [5] appears, read: Secondary screening, CBH I levels normalized to 5 μg/mL, cellobiose range 0.00085-100 mM, read-out: IC50.

Positions count from the first letter of the chain named. Names may count otherwise. Like-named read-outs stand apart in the source and are kept apart here.

B1: 268— Phe (protein, UniProt P62694 18-513, looked up, variant R268F)
Exoglucanase 1: QSACTLQSETHPPLTWQKCSSGGTCTQQTGSVVIDANWRWTHATNSSTNCYDGNTWSSTLCPDNETCAKNCCLDGAAYASTYGVTTSGNSLSIGFVTQSAQKNVGARLYLMASDTTYQEFTLLGNEFSFDVDVSQLPCGLNGALYFVSMDADGGVSKYPTNTAGAKYGTGYCDSQCPRDLKFINGQANVEGWEPSSNNANTGIGGHGSCCSEMDIWEANSISEALTPHPCTTVGQEICEGDGCGGTYSDNFYGGTCDPDGCDWNPYRLGNTSFYGPGSSFTLDTTKKLTVVTQFETSGAINRYYVQNGVTFQQPNAELGSYSGNELNDDYCTAEEAEFGGSSFSDKGGLTQFKKATSGGMVLVMSLWDDYYANMLWLDSTYPTNETSSTPGAVRGSCSTSSGVPAQVESQSPNAKVTFSNIKFGPIGSTGNPSGGNPPGGNRGTTTTRRPATTTGSSPGPTQSHYGQCGGIGYSGPTVCASGTTCQVLNPYYSQCL
Regarding B1, the “SA (μmol 4 MU/min/mg) (MUL Data)” value in assay [1] was 0.70 μmol 4 MU/min/mg. Further, the “Tolerance at 1 mM CB (MUL Data)” value in assay [2] (primary screening, n=1) stood at 21%. Further, the IC50 in assay [2] (setting [3]) is 400 µM.

B2: 268— Glu (protein, UniProt P62694 18-513, looked up, variant R268E)
Exoglucanase 1: B1 Exoglucanase 1 with F251E
Take B2: in assay [1], the “SA (μmol 4 MU/min/mg) (MUL Data)” value is 0.88 μmol 4 MU/min/mg. The “Tolerance at 1 mM CB (MUL Data)” value in assay [2] (primary screening, n=1) was determined as 52%. Besides, the IC50 in assay [2] (setting [3]) is 870 µM.

B3: R411Q (protein, UniProt P62694 18-513, looked up, variant R411Q)
Exoglucanase 1: B1 Exoglucanase 1 with F251R, R394Q
Consider B3, for which the 50% inhibitory concentration (IC50) in assay [2] (setting [4]) came out at 2510 µM.

B4: 268— Asp (protein, UniProt P62694 18-513, looked up, variant R268D)
Exoglucanase 1: B1 Exoglucanase 1 with F251D
As for B4, in assay [1], the “SA (μmol 4 MU/min/mg) (MUL Data)” value is recorded as 0.67 μmol 4 MU/min/mg. The “Tolerance at 1 mM CB (MUL Data)” value in assay [2] (primary screening, n=1) was determined as 44%. Moreover, the IC50 in assay [2] (setting [3]) amounted to 900 µM.

B5: R268F (protein, UniProt P62694 18-513, looked up, variant R268F)
Exoglucanase 1: B1 Exoglucanase 1
B5: the IC50 in assay [2] (setting [4]) stood at 515 µM.

B6: R411D (protein, UniProt P62694 18-513, looked up, variant R411D)
Exoglucanase 1: B1 Exoglucanase 1 with F251R, R394D
On to B6, for which the IC50 in assay [2] (setting [4]) came to 1640 µM; in assay [2] (setting [5]), 1580 µM.

B7: 268— His (protein, UniProt P62694 18-513, looked up, variant R268H)
Exoglucanase 1: B1 Exoglucanase 1 with F251H
Regarding B7, in assay [1], the “SA (μmol 4 MU/min/mg) (MUL Data)” value is listed as 1.21 μmol 4 MU/min/mg. In assay [2] (primary screening, n=1), the “Tolerance at 1 mM CB (MUL Data)” value worked out at 20%. Also, the IC50 in assay [2] (setting [3]) was 250 µM.

B8: 268— Trp (protein, UniProt P62694 18-513, looked up, variant R268W)
Exoglucanase 1: B1 Exoglucanase 1 with F251W
Regarding B8, the “SA (μmol 4 MU/min/mg) (MUL Data)” value in assay [1] is recorded as 1.31 μmol 4 MU/min/mg. Also, in assay [2] (primary screening, n=1), the “Tolerance at 1 mM CB (MUL Data)” value is recorded as 42%. In addition, the half-inhibitory concentration (IC50) in assay [2] (setting [3]) came out at 610 µM.

B9: R411E (protein, UniProt P62694 18-513, looked up, variant R411E)
Exoglucanase 1: B1 Exoglucanase 1 with F251R, R394E
On to B9, for which the IC50 in assay [2] (setting [4]) came out at 3380 µM.

B10: R411P (protein, UniProt P62694 18-513, looked up, variant R411P)
Exoglucanase 1: B1 Exoglucanase 1 with F251R, R394P
B10: the IC50 in assay [2] (setting [5]) worked out at 1270 µM; in assay [2] (secondary screening, CBH I levels normalized to 5 μg/mL, cellobiose range 0.0001-100 mM, read-out: Average IC50), 1050 µM.

B11: R411T (protein, UniProt P62694 18-513, looked up, variant R411T)
Exoglucanase 1: B1 Exoglucanase 1 with F251R, R394T
With B11, the IC50 came to 2020 µM in assay [2] (setting [4]) and 2000 µM in assay [2] (setting [5]).

B12: 268_+411A Gln (protein, UniProt P62694 18-513, looked up, variant R268Q R411A)
Exoglucanase 1: B1 Exoglucanase 1 with F251Q, R394A
Consider B12, for which the “SA (μmol 4 MU/min/mg) (MUL Data)” value in assay [1] was −0.45 μmol 4 MU/min/mg.

B13: R411L (protein, UniProt P62694 18-513, looked up, variant R411L)
Exoglucanase 1: B1 Exoglucanase 1 with F251R, R394L
For B13, in assay [2] (setting [4]), the IC50 amounted to 6390 µM.

B14: 268— Tyr (protein, UniProt P62694 18-513, looked up, variant R268Y)
Exoglucanase 1: B1 Exoglucanase 1 with F251Y
Turning to B14, the “SA (μmol 4 MU/min/mg) (MUL Data)” value in assay [1] was 0.65 μmol 4 MU/min/mg. The “Tolerance at 1 mM CB (MUL Data)” value in assay [2] (primary screening, n=1) is 35%. The IC50 in assay [2] (setting [3]) turned out to be 450 µM.

As a reminder, the IC50 is the midpoint of a concentration-inhibition curve.
